Experiment: soluble fraction after stress (log2 fold change); higher = more stays soluble; pooled small domains, quantitative proteomics
Conditions: stress: pH 4
Summary of the method: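 Custom libraries of small protein domains were pooled and measured with high-throughput quantitative proteomics after pH 4 stress. The read-out is the fold change in the amount of each domain that stays soluble after the acid stress, taken as a measure of aggregation propensity. Fold changes are on a log2 scale, and higher values mean more of the domain stayed soluble.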

Row | Sequence | soluble fraction (log2)
1 | HMRLIDVFELSPKNRTVLQLYYYEGYSVTEISKILKISVNGVTSRLSRARSKLKLEMEAAENE | -0.0525
2 | HMRLMLITPTEFDEAAEIADNLKDRRAVLMNVEKTDNETARRLIDFLSGVVYALGGKIMRISAQAYVLT | -0.228
3 | HMRLPNGYGGVTKLSGRRRKPYMVRKTIGWHIDEKTDKKVQDYVVIGYAATKSEALQMLADYNNNPFDV | 0.0101
4 | HMRLSVVDLQDSLRGLEYPAGKGDLINHAREHNASADVIAVLEQFSERTYRSAADVGEEFGRV | -0.166
5 | HMRLTIAQLSEKTGVPERTIRYYIDRGLVPSAHGERRGAWYDTVHLEPLLRIQQWREAGLSLEAIADLLR | -1.17
6 | HMRMLLEERLDEIVKIVNERGSISNQELVKMFGASESTIRRDITTLANDNRVIRVHGGAMSVVS | -0.387
7 | HMRMTLKNKVEDIVHILRKDKQTSLSAILGDNTDRIQTIVVFLAILELVKQHLIKTDQNANFGDINLFPED | 0.134
8 | HMRNLFWTEAQNAQNELNAMRINALTQSIRRIEPNFRGIPSLRDPNRPIPNEEVRDYENYLNRILP | 0.126
9 | HMRNMRKLWIARINAAARMNDISYSKLMHGLKLANVEINRKMLSEMAIDDPKSFTALVETAKKALNG | 0.303
10 | HMRNPLYAQVADYVMQQIAAGTYRPHQAIPTEWQLAKKLEVSQGTVRKGLDELVFKQILYRQQGVGTFVAD | 0.0353
11 | HMRPAAELGLPHAPKHFIQYLTEDDRPQVLKDVDYEGGMGVSIGRLREDSIFDWKFVGLAHNTL | 0.0686
12 | HMRPADTAAMLKYLSSGAVKGIGGALAGRIIEAFGDESIKVIEEDPARLATVKGITLKKAKEISEEMQRVN | 0.0199
13 | HMRPEFVVALSGADLGKLHRLYELGEVLSREDDAEGVTHAVLRVPDKHEHAFHAEFPQARPM | -0.19
14 | HMRPIDEVFGFFSRPENLTVITPSNLHFNILTPRPLEMKQGAVIDYTIKIFKVPIHWRTLITTYDPPFKFV | -0.399
15 | HMRPILTLEEAKAKALAHAGLKADQVTFTEAKLDWDDGKQVYDIEFYTADFKEYDYEIDAKTGEVLEVDY | 0.0375
16 | HMRPKAIFVDVDDTLVRSVGQTRIPMPAVIAHIRRLHDAGHQLYLWSSGGADYARASAEELGIGQYFQAFL | -0.32
17 | HMRPRWTEQEVERAKAIKMIYPNAYRLESSDVFVQVWSKEEILLAHVEVDMFPSLRPGQPVELDEIIG | -0.114
18 | HMRPTAWDQISDWLDRHGSIANADVVRIAGLDTLKASKLLTTWREQGLLEPLPGRGKRNMAYVRAI | 0.12
19 | HMRPTVNETQIREVFRSILGREVDPEGLRHYLGQAAKGWSIDQIRADVNNSQEAHQRRAELARQAEELK | -0.217

Row | Sequence | soluble fraction (log2)
20 | HMRQDEKTLLYWIAGHLKREGRQITERSARHLVEQVGTDMENLSREMEKLIAYTMGRTEITGQDIDDI | -1.21
21 | HMRQEIIEDSRKLLEESLKRYDLTYQEFIDTLKSKNMNVESTLINIIKNQSSLDLVLRNLGLIAP | -0.869
22 | HMRQISDPTALASMVDKVIEDNPSAVADYRRGESKALGFLIGRVMQSSGGKANPKMIRGLLVKNLES | 0.371
23 | HMRQMIIIMQKQAAASSVAAVVEFIRSKGLREHISPGAERTIIGAVGDERVFLPQELESLPQVERAIRVL | -0.85
24 | HMRQPAAVEYSTFLDWVHASQVERVVFEGDTIRGVRVTGEGFVTYSPETDNTALIGELKKSRVQISATAP | 0.311
25 | HMRQQAFWALVPEERDVLDETGAPLFRIGPTAWALVIEDRGEVFVVRDEDGRVGYLHEVDGVTR | -1.94
26 | HMRQQLAEILQKAVDNLPEAQRLVWLLRDKSDMTFKEIAEDLQLTEANVRVLLHRARLKLLAVINQYEE | -0.115
27 | HMRQYKEMPYRLFLIHLGKGLVDEVELSDKAKLTGKLKNGKIFITDNPRTENFKEQLLLHDVKVKEG | -0.133
28 | HMRQYTPEQLETAVLVLEEVRQGRRLDRALRSHPMPDGRLIAKHVLVAAYRKLVAEGTWKEDPEFLSRIRM | 0.116
29 | HMRRADRLLQLIQILRRHRRPVTGDVMARELEVSLRTVYRDIATLTIEGVPIRGEAGVGYVLGEGY | 0.211
30 | HMRRDEDLAHGRELLEKELRKQGLEVSENLKQDKLLEGAKRLGFLEAEDLVVAVGSGKVSAGMAVGRIIG | -0.411
31 | HMRREKVLIKLAENLASKVLRTKKSIELEPMTPYERKVIHTTIENISGVKSWSEGENLQRHLIVALDE | 0.188
32 | HMRRGPLTPDDFVLDMRVVHPRYGVGRIVALSGSGESRKATVDFGGSIGRMKFVLSQSPLKP | ≥ 0.43
33 | HMRRHLLEMNDAIGRLGRLISEDPADRDVAEVIWAALRGMVMGQMIMNEPIDWQRERRTLVEMAIGR | 0.119
34 | HMRRIADVVPEQLTREEAEELLETLAEQGEIHEEQALLARYILEQSLQGVAPEVEPLIRAKLLAGILMVY | -1.67
35 | HMRRKDIEFTNTMLEELYRHNSKWYDAVVRAYALEIPQKQIAEEMGIRLEAFQSMLFRAKKWIKTKYEADY | -0.432
36 | HMRRNLSGEDTIVNRMAQWQYTQEQKNELHKMMDAGMPQEDILSVFYPEIKAEEMHRFLLAFQTAHNSG | -0.0487
37 | HMRRPRGVFNLVPRGFKRFGFITPDGGGEDMFAHLENVRAGHVVEDRNAVEYGIGRGPDGRDQAVDIVPVP | -0.112
